Target: mCherry-YC (37 kDa isoform)
Assay: FRET or BRET; FLIM-FRET (phasor analysis) in nuclei of live HeLa cells, eGFP donor and mCherry acceptor, all three NF-Y subunits transfected (third one untagged), 24 h after transfection, 37 degrees, 5% CO2

B1: EGFP-YB (natural protein)
chain: MTMDGDSSTTDASQLGISADYIGGSHYVIQPHDDTEDSMNDHEDTNGSKESFREQDIYLPIANVARIMKNAIPQTGKIAKDAKECVQECVSEFISFITSEASERCHQEKRKTINGEDILFAMSTLGFDSYVEPLKLYLQKFREAMKGEKGIGGAVTATDGLSEELTEEAFTNQLPAGLITTDGQQQNVMVYTTSYQQISGVQQIQFS
FRET efficiency: 16% | fraction of FRET (% pixels): 38.2 % pixels
